B2: full-length rat Cerebellin-1, wild type (hexamer) (natural protein, UniProt P63182 22-193, looked up)
chain: QNETEPIVLEGKCLVVCDSNPTSDPTGTALGISVRSGSAKVAFSAIRSTNHEPSEMSNRTMIIYFDQVLVNIGNNFDSERSTFIAPRKGIYSFNFHVVKVYNRQTIQVSLMLNGWPVISAFAGDQDVTREAASNGVLIQMEKGDRAYLKLERGNLMGGWKYSTFSGFLVFPL

Key:
SEC = molecular target: the molecule itself; experiment: SEC
[1] = molecular target: rat Neurexin-1β (+SS4), residues S48 to P292 (β-unique N-terminal region plus LNS6) (rat, UniProt Q63373 48-292); experiment: ITC
non-reducing SDS-PAGE = molecular target: the molecule itself; experiment: non-reducing SDS-PAGE
[2] = molecular target: B2; experiment: ITC

Sequence of rat Neurexin-1β (+SS4), residues S48 to P292 (β-unique N-terminal region plus LNS6) (Q63373 48-292): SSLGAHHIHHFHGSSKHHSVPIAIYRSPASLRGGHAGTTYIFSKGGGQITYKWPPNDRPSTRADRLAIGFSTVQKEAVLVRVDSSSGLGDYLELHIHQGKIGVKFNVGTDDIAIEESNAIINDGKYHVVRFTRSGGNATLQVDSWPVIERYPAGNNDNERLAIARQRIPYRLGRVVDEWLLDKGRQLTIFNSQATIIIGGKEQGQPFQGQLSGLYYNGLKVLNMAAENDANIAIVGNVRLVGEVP

B1: rat Cerebellin-1 C34,38S double mutant (trimer) (natural protein, UniProt P63182 22-193, looked up)
chain: QNETEPIVLEGKSLVVSDSNPTSDPTGTALGISVRSGSAKVAFSAIRSTNHEPSEMSNRTMIIYFDQVLVNIGNNFDSERSTFIAPRKGIYSFNFHVVKVYNRQTIQVSLMLNGWPVISAFAGDQDVTREAASNGVLIQMEKGDRAYLKLERGNLMGGWKYSTFSGFLVFPL
- stoichiometry N (SEC): 3

Binder: B2
- Kd [1]: 47 nM
- stoichiometry N (non-reducing SDS-PAGE): 2

B3: rat Neurexin-1α (+SS4), domains LNS2 to LNS6 (domain or fragment)
chain: not shown
- Kd [2]: 35 nM
- stoichiometry N [2]: 0.912 ± 0.045

— publication PMC5149402 (Structure (London, England : 1993), 2016)
